The test deals with trypsin activity of mated D. melanogaster female hemolymph. As to the kind of experiment: cell-based or functional assay.

Turning to “Bowman-Birk Inhibitor (BBI), trypsin/chymotrypsin inhibitor from soybeans (from UniProt P01055 40-110)”, the reduced cleavage of the trypsin substrate N-Bnz-R-pna by mated female hemolymph was 78%.

(Values after patent publication US20110283945A1.)
